Molecular target: human CX3CR1 with FLAG tag at N-terminus, stably expressed on HEK293T cells (Multispan) (human) (UniProt P49238)
Assay: cell-based or functional assay

Sequence of human CX3CR1 with FLAG tag at N-terminus, stably expressed on HEK293T cells (Multispan) (human) (P49238 whole entry): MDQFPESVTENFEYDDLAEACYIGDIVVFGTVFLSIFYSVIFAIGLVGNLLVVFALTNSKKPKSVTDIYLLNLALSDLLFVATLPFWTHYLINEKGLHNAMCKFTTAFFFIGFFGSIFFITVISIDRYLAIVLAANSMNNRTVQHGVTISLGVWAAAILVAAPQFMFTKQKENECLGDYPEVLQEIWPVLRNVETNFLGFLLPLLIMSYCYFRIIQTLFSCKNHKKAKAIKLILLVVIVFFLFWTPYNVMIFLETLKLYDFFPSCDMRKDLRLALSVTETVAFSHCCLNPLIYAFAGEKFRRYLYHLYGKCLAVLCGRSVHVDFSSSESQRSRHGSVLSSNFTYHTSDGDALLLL

EC80 of calcium flux: 40 nM
Substance: CX3CL1 (control agonist, Peprotech Cat#300-31) (from UniProt P78423 25-100) (ligand)

Source: patent publication US20130156761A1
